Results from patent US20230301926A1 (EVOX THERAPEUTICS, published 2023).

Experiments:
[1] = biological target: T1, human serum albumin (labelled with Alexa Fluor 488) (human, UniProt P02768 25-609, Alexa Fluor 488 label (site not stated)); test: Optiprep gradient and dot-blot of 4e10 HEK EVs incubated with 80 µg/ml Alexa Fluor 488 HSA
T1 construct: Used at 80 µg/ml in the Optiprep gradient / dot-blot assays; also called HSA
Procedure: This experiment was performed by incubating overnight at 4° C. 4e¹⁰ HEK EVs expressing the constructs detailed above with 80 µg/ml human serum albumin (labelled with Alexa Fluor 488) and a mix of tetraspanin antibody. The next day, EVs were separated by Optiprep gradient ultracentrifugation and 300 µl fractions were collected, 100 µl from each fraction were used for DOTBLOT analysis and 50 µl from three subsequent fractions were pulled and used for imaging (widefield and dSTORM) […] (CD9, CD63 and CD81, 1:100) labelled with Alexa […].

[2] = biological target: T1, human serum albumin (labelled with …); test: Optiprep gradient ultracentrifugation and dot-blot of EVs incubated with Alexa Fluor 488 HSA
Procedure: Gradient separation was performed to assess the binding of albumin to EVs expressing ABD on the surface. The fusion constructs tested were: [0235] mCD63-Nluc (concentration: 1.37×10¹² particles/ml) [0236] mCD63-ABD-2nd loop Nluc (concentration: 6.5×10¹¹ particles/ml)
HEK EVs with albumin binding domain fused to different or both CD63 loops were incubated overnight at 4° C. 5 µl with 80 µg/ml human serum albumin (labelled with Alexa Fluor 488) and a mix of tetrspanin antibodies (CD9, CD63 and CD81, 1:100) labelled with Alexa Fluor 647. The next day, EVs were separated by Optiprep gradient ultracentrifugation and 300 µl fractions were collected, 100 µl from each fraction were used for DOTBLOT analysis and 50 µl from three subsequent fractions were pooled and used for imaging (widefield and dSTORM)

mouse serum albumin = biological target: T2, mouse serum albumin (mouse, UniProt P07724 25-608); test: EVs recovered from mouse serum 10 min after injection, gradient separation and dot-blot with anti-mouse serum albumin antibody
T2 construct: Albumin picked up by the EVs in the circulation of the mice
Procedure: Mice were injected with mCD63-ABD-2nd loop Nluc HEK EVs or mCD63-Nluc (no ABD control). Serum was collected 10 minutes after injection and purified with size-exclusion columns (qEV) to isolate EVs. 2.5×10¹⁰ EVs were then incubated overnight at 4° C. with an antibody anti-mouse serum albumin (labelled with FITC) and a mix of tetraspanin antibodies (human specific CD9, CD63 and CD81, 1:100) labelled with Alexa Fluor 647. The next day, EVs were separated by Optiprep gradient ultracentrifugation and 300 µl fractions were collected, 100 µl from each fraction were used for DOTBLOT analysis and 50 µl from three subsequent fractions were pulled and used for imaging (widefield)

FITC-human albumin = biological target: T3, FITC-human albumin (human, UniProt P02768 25-609, FITC label (site not stated)); test: in vitro albumin binding assay, protocol of Example 7
T3 construct: also called fluorescein isothiocyanate (FITC)-labeled albumin; FITC-albumin
T3 sequence (P02768 25-609 limits assumed): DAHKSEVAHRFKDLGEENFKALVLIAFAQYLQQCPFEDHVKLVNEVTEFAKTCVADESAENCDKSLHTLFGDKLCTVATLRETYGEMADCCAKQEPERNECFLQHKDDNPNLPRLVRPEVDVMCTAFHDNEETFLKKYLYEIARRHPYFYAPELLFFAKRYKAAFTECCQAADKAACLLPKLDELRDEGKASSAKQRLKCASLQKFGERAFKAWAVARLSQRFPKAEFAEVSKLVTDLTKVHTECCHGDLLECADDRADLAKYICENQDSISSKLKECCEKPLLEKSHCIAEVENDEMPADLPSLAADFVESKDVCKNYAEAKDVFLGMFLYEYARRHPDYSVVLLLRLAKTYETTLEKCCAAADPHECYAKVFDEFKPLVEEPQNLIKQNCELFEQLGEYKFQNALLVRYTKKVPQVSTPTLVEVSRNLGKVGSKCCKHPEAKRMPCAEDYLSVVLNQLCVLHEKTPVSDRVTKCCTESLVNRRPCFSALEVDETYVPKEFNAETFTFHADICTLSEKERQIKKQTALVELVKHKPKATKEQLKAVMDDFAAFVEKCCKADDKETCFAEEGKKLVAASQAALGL

T1 sequence (P02768 25-609 limits assumed): as above

B1: hCD9-ABD-1stloop-Nluc (other)
chain: MPVKGGTKCIKYLLFGFNFIFWLAGIAVLAIGLWLRFDSQTKSIMHLAEAKVLANRELDKYGVSDFYKRLINKAKTVEGVEALKLHILAALPMHFEQETNNNNSSFYTGVYILIGAGALMMLVGFLGCCGAVQESQCMLGLFFGFLLVIFAIEIAAAIWGYSHKDEVIKEVQEFYKDTYNKLKTKDEPQRETLKAIHYALNCCGLTRAGGVEQFISDICPKKDVLETFTVKSCPDAIKEVFDNKFHIIGAVGIGIAVVMIFGMIFSMILCCAIRRNREMVGSVFTLEDFVGDWRQTAGYNLDQVLEQGGVSSLFQNLGVSVTPIQRIVLSGENGLKIDIHVIIPYEGLSGDQMGQIEKIFKVVYPVDDHHFKVILHYGTLVIDGVTPNMIDYFGRPYEGIAVFDGKKITVTGTLWNGNKIIDERLINPDGSLLFRVTINGVTGWRLCERILA
notes: also called hCD9-ABD 1 st-Nluc
binding result [1]: binds

B2: mCD63-NanoLuc (other)
chain: MAVEGGMKCVKFLLYVLLLAFCACAVGLIAIGVAVQVVLKQAMHITHETTAGSLLPVVIIAVGAFLFLVAFVGCCGACKENYCLMITFAIFLSLIMLVEVAVAIAGYVFRDQVKSEFNKSFQQQMQNYLKDNKTATILDKLQKENNCCGATRSNYTDWENIPGMAKDRVPDSCCINITVGCGNDFKESTIHTQGCVETIAIWLRKNILLVAAAALGIAFVEVLGIIFSCCLVKSIRSGYEVMGSGSGSGSGSVFTLEDFVGDWRQTAGYNLDQVLEQGGVSSLFQNLGVSVTPIQRIVLSGENGLKIDIHVIIPYEGLSGDQMGQIEKIFKVVYPVDDHHFKVILHYGTLVIDGVTPNMIDYFGRPYEGIAVFDGKKITVTGTLWNGNKIIDERLINPDGSLLFRVTINGVTGWRLCERILAHHHHHH
notes: Control fusion of CD63 and nanoluc reporter lacking ABD, carried on EVs in the assays; His tag of the entry is called optional; also called mCD63-Nluc; control EVs
binding result [2]: no binding (tested: 80 µg/ml human serum albumin)

B3: hCD9-ABD-2x-Nluc (ABD present in both loops) (other)
chain: MPVKGGTKCIKYLLFGFNFIFWLAGIAVLAIGLWLRFDSQTKSIMHLAEAKVLANRELDKYGVSDFYKRLINKAKTVEGVEALKLHILAALPMHFEQETNNNNSSFYTGVYILIGAGALMMLVGFLGCCGAVQESQCMLGLFFGFLLVIFAIEIAAAIWGYSHKDEVIKEVQEFYKDTYNKLKTKDEPQRETLKAIHYALNCCGLTRQHDEAVDANSLAEAKVLANRELDKYGVSDFYKRLINKAKTVEGVEALKLHILAALPTRAGGVEQFISDICPKKDVLETFTVKSCPDAIKEVFDNKFHIIGAVGIGIAVVMIFGMIFSMILCCAIRRNREMVGSVFTLEDFVGDWRQTAGYNLDQVLEQGGVSSLFQNLGVSVTPIQRIVLSGENGLKIDIHVIIPYEGLSGDQMGQIEKIFKVVYPVDDHHFKVILHYGTLVIDGVTPNMIDYFGRPYEGIAVFDGKKITVTGTLWNGNKIIDERLINPDGSLLFRVTINGVTGWRLCERILA
notes: also called hCD9-ABDX2-Nluc
binding result [1]: binds

B4: mCD63-ABD 2nd loop-NanoLuc (other)
chain: MAVEGGMKCVKFLLYVLLLAFCACAVGLIAIGVAVQVVLKQAMHITHETTAGSLLPVVIIAVGAFLFLVAFVGCCGACKENYCLMITFAIFLSLIMLVEVAVAIAGYVFRDQVKSEFNKSFQQQMQNYLKDNKTATILDKLQKENNCCGATRRTQHDEAVDANSLAEAKVLANRELDKYGVSDFYKRLINKAKTVEGVEALKLHILAALPRTCTSGTRSNYTDWENIPGMAKDRVPDSCCINITVGCGNDFKESTIHTQGCVETIAIWLRKNILLVAAAALGIAFVEVLGIIFSCCLVKSIRSGYEVMGSGSGSGSGSVFTLEDFVGDWRQTAGYNLDQVLEQGGVSSLFQNLGVSVTPIQRIVLSGENGLKIDIHVIIPYEGLSGDQMGQIEKIFKVVYPVDDHHFKVILHYGTLVIDGVTPNMIDYFGRPYEGIAVFDGKKITVTGTLWNGNKIIDERLINPDGSLLFRVTINGVTGWRLCERILAHHHHHH
notes: also called mCD63-ABD-2nd loop Nluc; mCD63-ABD 2nd loop-Nluc
binding result (mouse serum albumin): binds

B5: hCD81-ABD-2ndloop-Nluc (other)
chain: MGVEGCTKCIKYLLFVFNFVFWLAGGVILGVALWLRHDPQTTNLLYLEMHLGDKPAPNTFYVGIYILIAVGAVMMFVGFLGCYGAIQESQCLLGTFFTCLVILFACEVAAGIWGFVNKDQIAKDVKQFYDQALQQAVVDDDANNAKAVVKTFHETLDCCGSTRQHDEAVDANSLAEAKVLANRELDKYGVSDFYKRLINKAKTVEGVEALKLHILAALPTRSTLTALTTSVLKNNLCPSGSNIISNLFKEDCHQKIDDLFSGKLYLIGIAAIVVAVIMIFEMILSMVLCCGIRNSSVYGSVFTLEDFVGDWRQTAGYNLDQVLEQGGVSSLFQNLGVSVTPIQRIVLSGENGLKIDIHVIIPYEGLSGDQMGQIEKIFKVVYPVDDHHFKVILHYGTLVIDGVTPNMIDYFGRPYEGIAVFDGKKITVTGTLWNGNKIIDERLINPDGSLLFRVTINGVTGWRLCERILA
notes: also called hCD81-ABD 2 nd-Nluc
binding result [1]: binds

B6: hCD9-ABD-2ndloop-Nluc (other)
chain: MPVKGGTKCIKYLLFGFNFIFWLAGIAVLAIGLWLRFDSQTKSIMHFEQETNNNNSSFYTGVYILIGAGALMMLVGFLGCCGAVQESQCMLGLFFGFLLVIFAIEIAAAIWGYSHKDEVIKEVQEFYKDTYNKLKTKDEPQRETLKAIHYALNCCGLTRQHDEAVDANSLAEAKVLANRELDKYGVSDFYKRLINKAKTVEGVEALKLHILAALPTRAGGVEQFISDICPKKDVLETFTVKSCPDAIKEVFDNKFHIIGAVGIGIAVVMIFGMIFSMILCCAIRRNREMVGSVFTLEDFVGDWRQTAGYNLDQVLEQGGVSSLFQNLGVSVTPIQRIVLSGENGLKIDIHVIIPYEGLSGDQMGQIEKIFKVVYPVDDHHFKVILHYGTLVIDGVTPNMIDYFGRPYEGIAVFDGKKITVTGTLWNGNKIIDERLINPDGSLLFRVTINGVTGWRLCERILA
notes: also called hCD9-ABD 2 nd-Nluc
binding result [1]: binds

B7: hCD81-ABD-2x-Nluc (ABD present in both loops) (other)
chain: MGVEGCTKCIKYLLFVFNFVFWLAGGVILGVALWLRHDPQTTNLLYLEMHLAEAKVLANRELDKYGVSDFYKRLINKAKTVEGVEALKLHILAALPMHLGDKPAPNTFYVGIYILIAVGAVMMFVGFLGCYGAIQESQCLLGTFFTCLVILFACEVAAGIWGFVNKDQIAKDVKQFYDQALQQAVVDDDANNAKAVVKTFHETLDCCGSTRQHDEAVDANSLAEAKVLANRELDKYGVSDFYKRLINKAKTVEGVEALKLHILAALPTRSTLTALTTSVLKNNLCPSGSNIISNLFKEDCHQKIDDLFSGKLYLIGIAAIVVAVIMIFEMILSMVLCCGIRNSSVYGSVFTLEDFVGDWRQTAGYNLDQVLEQGGVSSLFQNLGVSVTPIQRIVLSGENGLKIDIHVIIPYEGLSGDQMGQIEKIFKVVYPVDDHHFKVILHYGTLVIDGVTPNMIDYFGRPYEGIAVFDGKKITVTGTLWNGNKIIDERLINPDGSLLFRVTINGVTGWRLCERILA
notes: also called hCD81-ABDX2-Nluc
binding result [1]: binds

B8: Lamp2b-ABD-NanoLuc (other)
chain: LKFEQHDEAVDANSLAEAKVLANRELDKYGVSDFYKRLINKAKTVEGVEALKLHILAALPFETGGAPMHISQAVHAAHAEINEAGRSIINFEKLCTSVYDFFVWLGRGHLLGRLAAIVGKQVLLGRKVVVVRSHCHWNDLAVIPAGVVHNWDFEPRKVSPSKPSFQEFVDWENVSPELNSTDQPFLCTGSGSGSGSGSLKPAGILIPIIVGAGLSGLIIVIVIAYVIGRRKSYAGAQTLGGGGSYIPEAPRDGQAYVRKDGEWVLLSTFLSPANGTPTPTPTPTGRSLYPSLEDLKVDKVIQAQTAFSANPANPAILSEASAPIPHDGNLYPRLYPELSQYMGLSLEGGQLGTPTPTPTPTGGSVFTLEDFVGDWRQTAGYNLDQVLEQGGVSSLFQNLGVSVTPIQRIVLSGENGLKIDIHVIIPYEGLSGDQMGQIEKIFKVVYPVDDHHFKVILHYGTLVIDGVTPNMIDYFGRPYEGIAVFDGKKITVTGTLWNGNKIIDERLINPDGSLLFRVTINGVTGWRLCERILA
notes: also called Lamp2B-ABD-Nluc; Lamp2b-ABD-Nluc
binding result [1]: binds | binding result (FITC-human albumin): binds

B9: hCD81-ABD-1stloop-Nluc (other)
chain: MGVEGCTKCIKYLLFVFNFVFWLAGGVILGVALWLRHDPQTTNLLYLEMHLAEAKVLANRELDKYGVSDFYKRLINKAKTVEGVEALKLHILAALPMHLGDKPAPNTFYVGIYILIAVGAVMMFVGFLGCYGAIQESQCLLGTFFTCLVILFACEVAAGIWGFVNKDQIAKDVKQFYDQALQQAVVDDDANNAKAVVKTFHETLDCCGSTRSTLTALTTSVLKNNLCPSGSNIISNLFKEDCHQKIDDLFSGKLYLIGIAAIVVAVIMIFEMILSMVLCCGIRNSSVYGSVFTLEDFVGDWRQTAGYNLDQVLEQGGVSSLFQNLGVSVTPIQRIVLSGENGLKIDIHVIIPYEGLSGDQMGQIEKIFKVVYPVDDHHFKVILHYGTLVIDGVTPNMIDYFGRPYEGIAVFDGKKITVTGTLWNGNKIIDERLINPDGSLLFRVTINGVTGWRLCERILA
notes: also called hCD81-ABD 1 st-Nluc
binding result [1]: binds
